Experiment [1] has as its target ALYREF-ΔNC, with the N- and C-terminal UAP56-binding motifs (UBMs) deleted (human) (UniProt Q86V81). As to the kind of experiment: pull-down; Nickel-NTA affinity pull-down: 2 ug His6-tagged ALYREF or variant with 4 ug UAP56 in 30 ul K buffer (20 mM KH2PO4 pH 7.4, 10% glycerol, 0.5 mM EDTA, 0.01% Igepal, 1 mM DTT) with 200 mM KCl and 15 mM imidazole, 30 min at 4 °C; captured on Ni-NTA resin, eluted with 2% SDS; SDS-PAGE, Coomassie stain.

Experiment [2] shares this target.

UAP56, sequence (Q13838 whole entry): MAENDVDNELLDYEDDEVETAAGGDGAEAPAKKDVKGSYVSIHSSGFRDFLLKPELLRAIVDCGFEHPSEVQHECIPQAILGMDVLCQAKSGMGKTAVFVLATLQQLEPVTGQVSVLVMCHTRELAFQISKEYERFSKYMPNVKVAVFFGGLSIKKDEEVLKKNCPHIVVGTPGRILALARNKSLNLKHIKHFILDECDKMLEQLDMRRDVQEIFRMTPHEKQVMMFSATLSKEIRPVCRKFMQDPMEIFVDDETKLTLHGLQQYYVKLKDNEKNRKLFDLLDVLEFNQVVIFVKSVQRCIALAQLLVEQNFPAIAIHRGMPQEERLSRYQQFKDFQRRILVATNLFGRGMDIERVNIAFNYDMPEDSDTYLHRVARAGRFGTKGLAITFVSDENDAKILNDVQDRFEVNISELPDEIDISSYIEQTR

Substance “UAP56 (from UniProt Q13838 1-428) (enzyme)” gave a percent of the ability to interact with UAP56 lost, against WT ALYREF in experiment [1] of 80%. In addition, in experiment [2], the time course (5, 10, 15 min) of R-loop dissociation by 60 nM UAP56 with 6 nM ALYREF-ΔNC; fold increase at 5 min stood at 12 fold.
